Test results: publication PMC9695261

Biological target: Kansetin (human) (UniProt Q9BYF1)
Experiment: SPR

Substance | Kd
His-tagged RBD of the SARS-CoV-2 Omicron BA.5 strain (domain or fragment) | 33.1 nM
Spike S1+S2 trimer of the SARS-CoV-2 Omicron BA.5 strain (natural protein) | 1.22 nM
